“And” between values parts separate entries of the source, which are not always exact repeats. Equal values may be shown once.

The subject of one assay is HT29 cells. Description: Cell viability assay, HT29. The settings on record: read-out: IC50 cell viability, free DM1. Type of assay: cell-based, human. As to the method: (§1) Cell viability was determined by the MTS assay. […] Morphological changes were observed under the Olympus BK-41 inverted microscope and photographed. […] FIG. 3D: Cell death percentages were determined by the trypan blue exclusion method.
(§2) Cell viability and death assays: Cell viability 72 h after Zt/g4-DM1 treatment was determined by the MTT assay (22). Viable or dead cells were determined by the trypan blue exclusion assay. A total of 900 cells were counted from three individual wells to reach the percentages of dead cells.
(§3) The effect of Zt/g4-DM1 on cell viability was determined. […] The cells were treated with Zt/g4-DM1.

For the next assay, the system named is SW620 cells. As to the kind of experiment: Cell viability assay, SW620. To be noted: read-out: IC50 cell viability, free DM1. Type of assay: cell-based, human. As for the experimental part:
as §1, §2, §3

For another assay, the system named is HCT116 cells. Description: Cell viability assay, HCT116. The assay is classed as cell-based, human. The settings on record: read-out: IC50 cell viability, free DM1. As for the experimental part:
as §1, §2, §3

Assay [1] concerns the target T1, oncogenic RON variant RON160 (human, UniProt Q04912 25-1400, limits assumed).
T1 construct: also called RONΔ160
Description: receptor binding studies; format not stated.

In assay [2] the test system is transformed NIH-3T3 cells expressing oncogenic RON160. Description: Tumor growth by NIH-3T3 cells expressing RON160 in Balb/c mice. Type of assay: in vivo, mouse. The settings on record: repeated administration, single agent. The text has this: (§4) This sequence is critical in regulating RON maturation and phosphorylation. […] These biochemical features provide the cellular basis for the use of Zt/f2 to inhibit tumor growth in animal model. Repeated administration of Zt/f2 as a single agent into Balb/c mice results in partial inhibition of tumor growth caused by transformed NIH-3T3 cells expressing oncogenic RON160. Colon cancer HT-29 cell-mediated tumor growth in athymic nude mice also was attenuated following Zt/f2 treatment. In both cases, ˜50% inhibition of tumor growth as measured by tumor volume was achieved. […] The present inventors conclude that Zt/f2 is a potential therapeutic mAb capable of inhibiting RON-mediated oncogenesis by colon cancer cells in animal models. The inhibitory effect of Zt/f2 in vivo in combination with chemoagent 5-fluorouracil could represent a novel strategy for future colon cancer therapy.

A further assay concerns the target RON (Homo sapiens, UniProt Q04912). As to the kind of experiment: Classification of anti-RON mAbs by activity upon binding to RON. Type of assay: cell-based. From the text: Using an advanced living cell immunization method, the present inventors were able to generate mAbs specific only to the RON extracellular domains. Using flow cytometer in conjunction with biological assays, the present inventors characterize our anti-RON mAbs for their specificity and sensitivity. […] This is based on direct binding, ELISA, IHC, Western blotting and other biochemical and biological assays. Moreover, based on their activities upon binding to RON, the present inventors were able to classify the anti-RON mAb into three categories. […] This type of anti-RON mAbs is considered as agnostic antibodies. The representatives are Zt/g4, Zt/c1, Zt/c9, Zt/f1, and Zt/H12. […] The typical examples are Zt/g9 and Zt/c8. […] One example is Zt/f2. The present inventors considered this type of mAb having therapeutic potentials.

For assay [3], the system named is Colon cancer HT-29 cell-mediated tumor growth. Description: HT-29 cell-mediated tumor growth in athymic nude mice (Zt/f2). The assay is classed as in vivo, mouse.
Text: as §4

Assay [4] deals with human RON and its oncogenic variants such as RON160. As to the kind of experiment: Zt/f2 receptor binding to human RON.
Text: as §4

For assay [5], the target named is T2, human RON receptor tyrosine kinase (recepteur d'origine nantais) (human, UniProt Q04912 25-1400). Description: cell-based or functional assay.
Assay [6] concerns the target T2, human RON receptor tyrosine kinase …. As to the kind of experiment: cell-based or functional assay. The source holds these as a separate data set.
The next assay deals with cell surface RON (Homo sapiens, UniProt Q04912). As to the kind of experiment: Antibody-induced RON endocytosis in cancerous cells. The assay is classed as cell-based. Details: cause rapid and significant amount of cell surface RON internalization in cancerous cells; endogenous in cells. The text has this: During characterization of anti-RON mAbs, the present inventors discovered that agonistic anti-RON mAb such as Zt/g4 and Zt/c1 binds to RON and cause rapid and significant amount of cell surface RON internalization in cancerous cells (a process known as antibody-induced receptor endocytosis). […] Fab fragments that fail to cause RON activation cannot induce RON endocytosis. In light of these findings, the present inventors conclude that anti-RON mAb-induced RON endocytosis can be used as a pharmaceutical means for targeted drug delivery.
Chain of cell surface RON (Q04912 25-1400): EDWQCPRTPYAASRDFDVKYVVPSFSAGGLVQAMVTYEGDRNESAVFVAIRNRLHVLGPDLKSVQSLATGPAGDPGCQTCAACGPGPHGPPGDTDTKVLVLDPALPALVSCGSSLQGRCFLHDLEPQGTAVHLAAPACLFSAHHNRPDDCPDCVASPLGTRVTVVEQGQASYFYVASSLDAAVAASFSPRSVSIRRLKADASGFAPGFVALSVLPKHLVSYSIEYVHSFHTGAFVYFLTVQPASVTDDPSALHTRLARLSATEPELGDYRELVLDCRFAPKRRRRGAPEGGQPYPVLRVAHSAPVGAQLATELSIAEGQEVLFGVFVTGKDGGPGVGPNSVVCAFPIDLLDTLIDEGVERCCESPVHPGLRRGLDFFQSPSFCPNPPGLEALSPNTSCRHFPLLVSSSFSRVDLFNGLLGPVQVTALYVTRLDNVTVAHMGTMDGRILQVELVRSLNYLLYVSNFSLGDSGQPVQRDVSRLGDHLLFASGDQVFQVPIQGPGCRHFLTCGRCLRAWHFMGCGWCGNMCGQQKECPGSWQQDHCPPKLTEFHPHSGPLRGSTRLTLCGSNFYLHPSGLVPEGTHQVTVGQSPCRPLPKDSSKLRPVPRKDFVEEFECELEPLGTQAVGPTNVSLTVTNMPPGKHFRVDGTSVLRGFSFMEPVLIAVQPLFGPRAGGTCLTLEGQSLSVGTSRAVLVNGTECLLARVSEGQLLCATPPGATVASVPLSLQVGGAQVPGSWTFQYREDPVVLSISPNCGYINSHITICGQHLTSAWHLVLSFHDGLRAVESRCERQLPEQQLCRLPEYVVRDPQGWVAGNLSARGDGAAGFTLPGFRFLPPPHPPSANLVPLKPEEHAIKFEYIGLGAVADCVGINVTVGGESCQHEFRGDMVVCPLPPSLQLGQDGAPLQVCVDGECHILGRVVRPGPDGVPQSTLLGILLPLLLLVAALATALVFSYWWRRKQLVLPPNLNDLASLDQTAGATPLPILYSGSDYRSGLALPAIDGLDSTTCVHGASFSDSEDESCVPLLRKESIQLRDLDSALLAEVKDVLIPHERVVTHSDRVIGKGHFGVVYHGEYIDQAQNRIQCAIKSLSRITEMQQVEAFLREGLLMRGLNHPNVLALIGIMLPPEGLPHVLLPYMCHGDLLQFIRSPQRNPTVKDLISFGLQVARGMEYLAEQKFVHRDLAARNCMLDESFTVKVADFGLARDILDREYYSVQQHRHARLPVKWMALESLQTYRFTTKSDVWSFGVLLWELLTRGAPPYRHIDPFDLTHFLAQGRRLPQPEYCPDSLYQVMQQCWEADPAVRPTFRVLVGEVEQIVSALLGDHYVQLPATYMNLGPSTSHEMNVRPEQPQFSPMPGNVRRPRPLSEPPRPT

For a further assay, the target named is T3, mouse RON homologue (Mus musculus, UniProt Q62190).
T3 sequence (Q62190 24-1378): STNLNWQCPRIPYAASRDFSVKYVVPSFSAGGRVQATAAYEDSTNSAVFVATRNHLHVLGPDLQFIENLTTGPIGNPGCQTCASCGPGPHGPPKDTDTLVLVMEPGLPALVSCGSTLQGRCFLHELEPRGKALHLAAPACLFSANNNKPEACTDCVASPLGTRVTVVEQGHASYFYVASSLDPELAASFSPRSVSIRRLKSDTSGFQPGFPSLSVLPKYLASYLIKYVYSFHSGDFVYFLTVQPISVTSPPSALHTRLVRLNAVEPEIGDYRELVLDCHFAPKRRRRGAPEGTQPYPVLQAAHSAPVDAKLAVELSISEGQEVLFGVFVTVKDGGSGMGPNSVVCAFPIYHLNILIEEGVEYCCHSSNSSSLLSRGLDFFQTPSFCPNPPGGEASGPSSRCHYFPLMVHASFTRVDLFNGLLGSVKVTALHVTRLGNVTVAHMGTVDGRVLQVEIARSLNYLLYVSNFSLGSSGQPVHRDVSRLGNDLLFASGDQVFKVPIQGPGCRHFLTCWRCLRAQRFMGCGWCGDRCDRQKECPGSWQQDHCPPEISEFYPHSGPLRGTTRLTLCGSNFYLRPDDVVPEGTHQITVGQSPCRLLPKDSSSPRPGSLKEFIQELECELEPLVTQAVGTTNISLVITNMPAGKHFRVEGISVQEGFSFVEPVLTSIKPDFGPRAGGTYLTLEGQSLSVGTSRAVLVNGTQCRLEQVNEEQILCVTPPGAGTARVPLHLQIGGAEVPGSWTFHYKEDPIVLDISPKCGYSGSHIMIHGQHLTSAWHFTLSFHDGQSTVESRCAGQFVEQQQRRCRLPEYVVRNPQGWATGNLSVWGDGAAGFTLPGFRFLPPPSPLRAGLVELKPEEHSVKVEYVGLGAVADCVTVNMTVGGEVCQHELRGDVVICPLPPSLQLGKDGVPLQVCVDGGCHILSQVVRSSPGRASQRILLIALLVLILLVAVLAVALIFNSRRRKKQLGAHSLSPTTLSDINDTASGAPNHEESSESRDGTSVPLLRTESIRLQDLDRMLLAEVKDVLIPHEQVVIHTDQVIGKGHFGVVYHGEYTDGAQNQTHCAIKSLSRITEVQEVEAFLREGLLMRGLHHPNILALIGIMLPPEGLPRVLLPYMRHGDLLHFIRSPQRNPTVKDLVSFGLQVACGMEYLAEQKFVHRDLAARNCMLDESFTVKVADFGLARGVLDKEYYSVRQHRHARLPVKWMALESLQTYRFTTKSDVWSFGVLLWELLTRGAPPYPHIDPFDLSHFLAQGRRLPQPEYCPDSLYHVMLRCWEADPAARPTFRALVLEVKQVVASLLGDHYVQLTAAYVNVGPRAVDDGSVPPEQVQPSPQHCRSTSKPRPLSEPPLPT
The settings on record: cited from earlier work.

The target of assay [7] is T2, human RON receptor tyrosine kinase …. As to the kind of experiment: direct binding, ELISA, IHC, Western blotting, flow cytometry. On the technique in general: In an ELISA, binding on a coated surface is turned into a signal by an enzyme label.
For assay [8], the system named is human pancreatic cancer cells. As to the kind of experiment: PDAC cell viability in combination with chemotherapeutics. Type of assay: cell-based. As to the method:
In vitro cell viability and death assays: Cell viability after treatment of Zt/g4-DM1, chemotherapeutics, and their combinations was determined by the MTT assay. Cell death was determined by the trypan blue exclusion assay.
FIGS. 10A to 10D are graphs that show the effect of Zt/g4-DM1 on pancreatic cancer cell cycle, viability, and apoptotic death. […] FIG. 12 are graphs that show synergism between Zt/g4-DM1 and chemotherapeutics by isobolograms.

Chain of RON (Q04912 25-1400): as the sequence (Q04912 25-1400) above

A word on the IC50: it is the concentration that gives 50% inhibition. Regarding `COc1cc2cc(c1Cl)N(C)C(=O)C[C@H](OC(=O)[C@H](C)N(C)C(=O)CCS)[C@]1(C)O[C@H]1[C@H](C)[C@@H]1C[C@@](O)(NC(=O)O1)[C@H](OC)/C=C/C=C(\C)C2` [DM1, Maytansinoid (DM1)], the figures for the IC50 in the assay with HT29 cells, with SW620 cells and in the assay on HCT116 cells were 4.4 nM, 3.2 nM and 4.1 nM, respectively.

B1: mouse monoclonal antibody Zt/f2 specific to human RON (antibody, V domains shown)
VH: QVQLQQSGAELAKPGASVKMSCKASGYTFTSYWMHWVKQRPGQGLEWIGYINPSTGYIEYNQNFKDKATLTADKSSSTAYMQLSSLTSEDSAVYYCARSPSHYYGSRYGYFDVWGAGTTVTVSS
VL: QIVLSQSPAILSASPGEKVTMTCRASSSVSYMHWYQQKPGSSPKPWIYATSNLASGVPARFSGSGSGTSYSLTISRVEAEDAATYYCQQWSSNPRTFGGGTKLEIK
notes: Mouse IgG2a; also called anti-RON mAb Zt/f2
Usually EC50 stands for the concentration that produces a half-maximal response. In assay [1], B1 displayed an EC50 of 2.3 nM.

B2: Zt/f2: mouse IgG2a mAb specific to human RON and its oncogenic variants such as RON160 (antibody, V domains shown)
VH: B1 VH
VL: B1 VL
Consider B2, for which the “inhibition of tumor growth as measured by tumor volume” value in [2] is reported as approximately 50%; in assay [3] (single agent, athymic nude mice), approximately 50%. Besides, the “activity upon binding to RON” value with RON was “inhibit RON activation and signaling”. The “inhibition effect on HT-29 cell-mediated tumor growth” value in [3] (in combination with 5-fluorouracil) is listed as approximately 80%. Moreover, the “competition with ligand macrophage-stimulating protein for binding to RON” value in [4] is “did not compete”.

B3: anti-RON antibody Zt/g4-maytansinoid (DM1) conjugate Zt/g4-DM1 (antibody, V domains shown)
VH: EVQLQQSGAELVKPGASVKLSCTTSGFNIIDTYIHWVNQKPDQGLEWIGRIDPADGNRKSDPKFQVKATITVDTSSNTAYLQLSSLTSGDTAVYYCARGYGNLNAMDSWGQGTSVTVSS
VL: DIQMNQSPSSLSASLGDTITITCHASQNINVWLNWYQQKPGNIPKLLIYKASNLHTGVPSRFSGSGSGTGFTLTISSLQPEDIATYYCQQGQSYPLTFGGGTKLEIK
modifications: DM1 conjugated by non-reducible thioether linkage (SMCC) through lysine residues in the antibody molecule; sites not stated; DM1 conjugated by non-reducible thioether linkage (SMCC) through lysine residues in the antibody molecule; average DAR 3.724; sites not stated
Regarding B3, the “IC50 value, cytotoxic effect on HT-29 cells” value in assay [5] was 1.25 µg/mL and 8.32 nM. Besides, in assay [6], the “IC50 of cell death at 72 h, three CRC cell lines” value was 5 to 7 µg/mL; the “IC50 of cell viability at 72 h, HCT116 cells” value was determined as 2.16 µg/mL; the “IC50 of cell viability at 72 h, HT29 cells” value is 1.64 µg/mL; the “IC50 of cell viability at 72 h, SW620 cells” value came to 4.03 µg/mL. For the same molecule, in [6], the “IC50 of cell viability, DLD1 cells” value is 20.4 µg/mL and the “average IC50 value in causing cell death, three PDAC cell lines (L3.6pl, BxPC-3, FG)” value turned out to be 3.13 µg/mL.

B4: Zt/g4-MMAE (antibody, V domains shown)
VH: B3 VH
VL: B3 VL
modifications: monomethyl auristatin E (MMAE) conjugated; average drug to antibody ratio 3.8:1; sites not stated
Regarding B4, the “average IC50 value in causing cell death, three PDAC cell lines (L3.6pl, BxPC-3, FG)” value in [6] is 5.16 µg/mL.

B5: Zt/g4: mouse monoclonal antibody (IgG1α/κ) highly specific to human RON, recognizes the RON sema domain (antibody, V domains shown)
VH: B3 VH
VL: B3 VL
For B5, the “absence of RON expression in cancerous cells in culture” value with cell surface RON (after endocytosis) is on record as “up to 72 h”. In addition, the “cell surface RON internalization” value with cell surface RON (within 24 h, 10 μg/ml/1×10^6 cancer cells) is recorded as “almost all cell surface RON is internalized”. The “activity upon binding to RON” value in the assay with RON is listed as “cause transient RON phosphorylation”. In the assay with mouse RON homologue, the “species recognition of RON” value is “only recognizes human RON but not mouse RON homologue”.

B6: mouse anti-RON monoclonal antibody Zt/g4 (antibody, V domains shown)
VH: B3 VH
VL: B3 VL
notes: Mouse IgG1a/kappa from hybridoma; The leader is not part of the antibody as tested; also called free Zt/g4; anti-RON mAb Zt/g4
As for B6, the binding result in assay [7] was “binds”.

B7: Zt/g4-MMAE: Zt/g4 conjugated to monomethyl auristatin E (MMAE) (conjugate)
VH: B3 VH
VL: B3 VL
For B7, the “combination effect on viability of human pancreatic cancer cells” value in assay [8] (in combination with Gemcitabine) and in assay [8] (in combination with Oxaliplatin) was “synergistic activity” in each case.

Values taken from US20160311918A1, “Anti-Ron Monoclonal Antibodies as a Cytotoxic Drug Delivery System for Targeted Cancer Therapy” (TEXAS TECH UNIVERSITY SYSTEM, priority 2013, published 2016).
